# From patent publication US20250163182A1 (Janssen / Centocor, published 2025)
# T1: cynomolgus monkey ENPP3 (cynomolgus monkey, UniProt A0A2K5TKP4 46-874)
# T1 construct: also called cyno ENPP3
# T1 sequence: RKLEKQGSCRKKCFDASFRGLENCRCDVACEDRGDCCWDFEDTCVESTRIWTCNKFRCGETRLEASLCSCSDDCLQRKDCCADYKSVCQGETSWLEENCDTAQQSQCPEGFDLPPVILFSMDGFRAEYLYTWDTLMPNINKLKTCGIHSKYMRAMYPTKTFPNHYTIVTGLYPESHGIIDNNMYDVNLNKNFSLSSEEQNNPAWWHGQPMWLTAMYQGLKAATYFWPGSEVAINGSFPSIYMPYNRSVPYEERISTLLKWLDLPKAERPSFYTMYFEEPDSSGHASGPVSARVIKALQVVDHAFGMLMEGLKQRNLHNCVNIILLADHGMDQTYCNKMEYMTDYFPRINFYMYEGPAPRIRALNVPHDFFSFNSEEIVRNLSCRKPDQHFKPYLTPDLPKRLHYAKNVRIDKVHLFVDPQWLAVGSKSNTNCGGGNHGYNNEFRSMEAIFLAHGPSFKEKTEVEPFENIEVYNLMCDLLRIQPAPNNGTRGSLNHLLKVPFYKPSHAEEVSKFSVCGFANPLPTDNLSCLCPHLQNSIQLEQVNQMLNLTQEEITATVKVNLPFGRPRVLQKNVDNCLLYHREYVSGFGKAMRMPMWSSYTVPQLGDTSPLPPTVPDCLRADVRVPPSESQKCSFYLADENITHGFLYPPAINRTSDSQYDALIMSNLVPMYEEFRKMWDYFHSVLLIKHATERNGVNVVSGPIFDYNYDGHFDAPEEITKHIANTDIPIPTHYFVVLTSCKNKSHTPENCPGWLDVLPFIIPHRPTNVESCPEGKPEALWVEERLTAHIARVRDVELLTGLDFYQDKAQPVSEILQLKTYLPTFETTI
# T2: human ENPP3 (human, UniProt O14638 46-875, limits assumed)
# T2 construct: neither the construct nor the method is stated; also called ectonucleotide pyrophosphatase/phosphodiesterase family member 3
# T2 sequence (looked up): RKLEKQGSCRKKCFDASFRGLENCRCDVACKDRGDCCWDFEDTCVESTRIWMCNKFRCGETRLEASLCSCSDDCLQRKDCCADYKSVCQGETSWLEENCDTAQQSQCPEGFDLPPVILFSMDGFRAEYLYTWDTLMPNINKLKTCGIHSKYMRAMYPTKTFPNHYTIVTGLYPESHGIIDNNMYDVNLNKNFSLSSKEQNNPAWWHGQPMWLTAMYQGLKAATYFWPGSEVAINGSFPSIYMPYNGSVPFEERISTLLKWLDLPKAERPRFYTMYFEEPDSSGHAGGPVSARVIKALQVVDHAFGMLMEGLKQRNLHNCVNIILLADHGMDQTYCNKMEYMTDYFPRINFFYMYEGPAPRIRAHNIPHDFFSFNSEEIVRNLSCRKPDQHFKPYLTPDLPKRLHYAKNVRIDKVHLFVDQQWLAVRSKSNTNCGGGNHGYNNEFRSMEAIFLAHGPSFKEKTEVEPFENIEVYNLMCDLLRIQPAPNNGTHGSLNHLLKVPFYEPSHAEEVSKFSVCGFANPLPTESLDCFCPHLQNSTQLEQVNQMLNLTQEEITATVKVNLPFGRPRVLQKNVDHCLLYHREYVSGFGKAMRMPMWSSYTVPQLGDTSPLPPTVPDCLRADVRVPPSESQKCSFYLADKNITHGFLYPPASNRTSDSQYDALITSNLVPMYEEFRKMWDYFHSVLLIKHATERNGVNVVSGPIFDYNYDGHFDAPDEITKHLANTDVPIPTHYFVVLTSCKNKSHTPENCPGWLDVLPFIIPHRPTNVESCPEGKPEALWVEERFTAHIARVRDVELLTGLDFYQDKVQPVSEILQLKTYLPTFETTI
# T3: ENPP1 on CHOK1 cells (UniProt P22413 1-925, limits assumed)
# T3 construct: whole, on cells; also called ectonucleotide pyrophosphatase/phosphodiesterase family member 1; CHO ENPP1 OE
# T3 sequence (looked up): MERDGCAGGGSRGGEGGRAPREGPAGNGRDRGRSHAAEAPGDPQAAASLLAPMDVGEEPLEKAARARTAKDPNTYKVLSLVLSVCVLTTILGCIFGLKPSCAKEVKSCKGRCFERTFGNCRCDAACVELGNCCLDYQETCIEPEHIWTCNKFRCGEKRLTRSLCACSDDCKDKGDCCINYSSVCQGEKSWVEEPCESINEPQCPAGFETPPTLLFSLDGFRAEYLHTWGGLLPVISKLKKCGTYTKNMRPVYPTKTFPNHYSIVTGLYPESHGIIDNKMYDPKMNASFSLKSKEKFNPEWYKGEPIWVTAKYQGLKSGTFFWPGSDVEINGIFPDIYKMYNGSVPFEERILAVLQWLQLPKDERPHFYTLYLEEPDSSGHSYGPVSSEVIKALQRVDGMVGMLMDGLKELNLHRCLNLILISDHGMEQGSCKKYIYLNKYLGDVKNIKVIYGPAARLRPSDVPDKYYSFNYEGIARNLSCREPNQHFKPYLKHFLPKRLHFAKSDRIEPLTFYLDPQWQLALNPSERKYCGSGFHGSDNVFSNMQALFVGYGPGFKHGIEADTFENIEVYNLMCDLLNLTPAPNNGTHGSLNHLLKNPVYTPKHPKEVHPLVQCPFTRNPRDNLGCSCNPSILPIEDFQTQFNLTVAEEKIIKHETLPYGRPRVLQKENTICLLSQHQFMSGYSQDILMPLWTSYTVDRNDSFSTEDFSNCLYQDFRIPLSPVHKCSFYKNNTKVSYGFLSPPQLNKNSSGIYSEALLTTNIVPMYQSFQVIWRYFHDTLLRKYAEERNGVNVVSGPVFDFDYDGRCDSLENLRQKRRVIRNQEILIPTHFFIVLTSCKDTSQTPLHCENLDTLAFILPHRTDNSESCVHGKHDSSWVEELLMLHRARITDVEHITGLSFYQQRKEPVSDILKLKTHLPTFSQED
# T4: human ENPP3 on cells (human, UniProt O14638 1-875)
# T4 construct: whole, on cells; also called ENPP3 on A704, VMRCRCW, HepG2, TUHR4TKB, TUHR10TKB; CHO-K1 ENPP3 OE
# T4 sequence (looked up): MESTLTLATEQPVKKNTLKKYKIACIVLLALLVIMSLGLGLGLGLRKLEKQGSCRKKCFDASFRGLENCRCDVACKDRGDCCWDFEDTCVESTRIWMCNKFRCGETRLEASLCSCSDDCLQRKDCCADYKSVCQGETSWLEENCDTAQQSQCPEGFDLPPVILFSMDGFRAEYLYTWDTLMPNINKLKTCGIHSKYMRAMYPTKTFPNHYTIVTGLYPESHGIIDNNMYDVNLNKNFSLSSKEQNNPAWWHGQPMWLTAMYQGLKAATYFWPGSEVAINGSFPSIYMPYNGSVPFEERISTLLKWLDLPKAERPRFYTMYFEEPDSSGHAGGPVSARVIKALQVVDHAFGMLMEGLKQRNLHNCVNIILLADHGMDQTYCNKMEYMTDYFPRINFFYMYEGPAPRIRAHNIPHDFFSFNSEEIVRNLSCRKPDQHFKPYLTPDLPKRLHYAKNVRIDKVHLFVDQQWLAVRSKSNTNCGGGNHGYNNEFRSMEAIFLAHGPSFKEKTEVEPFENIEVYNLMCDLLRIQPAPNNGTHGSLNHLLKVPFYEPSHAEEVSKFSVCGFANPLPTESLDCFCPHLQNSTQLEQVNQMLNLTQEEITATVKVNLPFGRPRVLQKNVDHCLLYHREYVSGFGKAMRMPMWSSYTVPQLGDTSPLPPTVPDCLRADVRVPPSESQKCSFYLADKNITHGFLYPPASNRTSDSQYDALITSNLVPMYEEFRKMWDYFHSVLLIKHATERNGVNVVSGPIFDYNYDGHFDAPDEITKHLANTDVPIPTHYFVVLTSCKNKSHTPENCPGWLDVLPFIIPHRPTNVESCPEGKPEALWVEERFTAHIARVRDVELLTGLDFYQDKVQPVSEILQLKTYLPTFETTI
# What was measured:
# cynomolgus monkey ENPP3 = target: T1, cynomolgus monkey ENPP3; assay: binding affinity to cyno ENPP3; method not stated; biphasic
# human ENPP3 = target: T2, human ENPP3; assay: binding affinity to human ENPP3; method not stated
# ENPP2 on CHOK1 cells = ENPP2 on CHOK1 cells (UniProt Q13822 36-863); assay: flow cytometry on CHO cells overexpressing ENPP2
# ENPP1 on CHOK1 cells = target: T3, ENPP1 on CHOK1 cells; assay: flow cytometry on CHO cells overexpressing ENPP1
# human ENPP3 on cells = target: T4, human ENPP3 on cells; assay: flow cytometry on CHO cells overexpressing ENPP3
# Description: To evaluate the specificity of binders to ENPP3 compared to other ENPP family members, cell binding was assessed on CHOK1 cells overexpressing ENPP1, ENPP2, or ENPP3 (FIG. 9).
Kd (cynomolgus monkey ENPP3),Kd (human ENPP3),EC50 (read off the curve) (human ENPP3 on cells),Binder,binding result (ENPP2 on CHOK1 cells),binding result (ENPP1 on CHOK1 cells)
~1 nM,0.448 nM,,"NPP3B60 (antibody, V domains shown, mAb from Ablexis Kappa mice) VH: QVQLVQSGAEVKKPGESLKISCKGSGYGFTNYWIGWVRQMPGKGLEWMGIIYPSDSNTRYSPSFQGQVTISADKSINTAYLQWSSLKASDTAMYYCTRQNYYYYTMDVWGQGTTVTVSS VL: DIQMTQSPSFLSASVGDRVTITCRASQVIRSYLAWYQQKPGKAPKLLIYGASTLQSGFPSRFSGSGSGTEFTLTISSLQPEDFATYYCQQLNSYPRTFGQGTKVEIK",,
~20 nM,0.133 nM,,"NPP3B107 (antibody, V domains shown, mAb from Ablexis Kappa mice) VH: EVQLVESGGGLVKPGGSLRLSCAASGFIFSDYSMNWVRQAPGKGLEWVSSISSGSSYIYYADSLKGRFTISRDNAKNSLYLQMSSLRAEDTAVYYCVRGLDYFDYWGQGALVTVSS VL: DIQMTQSPSFLSASVGDRVTITCRASQDISNYLAWYQQKPGRAPKLLIYVASTLQSGVPSRFSGSGSGTEFTLTISSLQPEDFATYYCQQLNSYPRTFGQGTKVEIK",,
,,~0.5 µg/mL,"NPP3B194 (bispecific antibody, IgG1, ENPP3 Fab as VH1-CH1-hinge-CH2-CH3 IgG1 with hole T366S, L368A, Y407V and VL1-CL; scFv in VL-linker-VH-Fc orientation; also called unstapled (scFv) ENPP3×CD3; ScFv version of NPP3B815) VH: EVQLVESGGGRVKPGGSLRLSCAASGFTFSDYSMNWVRQAPGKGLEWVSSISSISSYVKYADSVKGRFTMSRDNAKNSLFLQMNSLRDEDMAVYYCARGHYFDYWGQGTLVTVSS VL: EIVMTQSPATLSVSPGERATLSCRASQSVSSNLAWYQQKPGLAPRLLIYGASTRATGIPARFSGSGSGTEFTLTISSLQSEDFAVYYCQQYNNWPRTFGQGTKVEIK scFv: EIVLTQSPATLSASPGERVTLSCSASSSVSYMNWYQQKPGQAPRRWIYDSSKLASGVPARFSGSGSGRDYTLTISSLEPEDFAVYYCQQWSRNPPTFGGGTKVEIKGGSEGKSSGSGSESKSTGGSQVQLVQSGAEVKKPGSSVKVSCKASGYTFTRSTMHWVKQAPGQGLEWIGYINPSSAYTNYNQKFQGRVTLTADKSTSTAYMELSSLRSEDTAVYYCASPQVHYDYAGFPYWGQGTLVTVSS",no binding (tested: Log(ug/mL) about 1.1 (about 12 ug/mL)),no binding (tested: Log(ug/mL) about 1.1 (about 12 ug/mL))
~2 nM,0.215 nM,,"NPP3B56 (antibody, V domains shown, mAb from Ablexis Kappa mice) VH: EVQLVESGGGRVKPGGSLRLSCAASGFTFSDYSMNWVRQAPGKGLEWVSSISSISSYVKYADSVKGRFTMSRDNAKNSLFLQMNSLRDEDMAVYYCARGHYFDYWGQGTLVTVSS VL: EIVMTQSPATLSVSPGERATLSCRASQSVSSNLAWYQQKPGLAPRLLIYGASTRATGIPARFSGSGSGTEFTLTISSLQSEDFAVYYCQQYNNWPRTFGQGTKVEIK",,
~2 nM,0.536 nM,,"NPP3B64 (antibody, V domains shown, mAb from Ablexis Kappa mice) VH: QVQLVQSGAEVKKPGASVKVSCKASGYTFTTYYIHWVRQAPGQGLEWMGIINPSGGSTNYAQKFQGRVTMTRDTSTRIVYMELGSLRSEDTAVYYCARDYYYYYYGMDVWGQGTTVTVSS VL: DIVMTQSPLSLPVTLGQPASISCRSSQSLVRNGGYTYLNWLQQRPGQPPRLLIYQISNRFSGVPDRFSGSGAGTDFTLTISRVEAEDVGVYYCMQATQFPHTFGQGTKLEIK",,
,0.0977 nM,,"NPP3B100 (antibody, V domains shown, mAb from Ablexis Kappa mice) VH: QVQLQESGPGLVKTSETLSLTCTVSGGSISSHYWSWIRQPPGKGLEWIGNIFYSGSTNYNPSLKSRVTMSVDTSKNHFSLKLISVTTADTAIYYCARHDHVWFDPWGQGTLVTVSS VL: not shown",,
~5 nM,0.245 nM,,"NPP3B86 (antibody, V domains shown, mAb from Ablexis Kappa mice) VH: QVQLVQSGAEVKKPGASVKVSCKASGYTVTNYYIFWVRQAPGQGLEWMGWINPNSGGTNYAQKFQGRVTMTRDTSINTAYMKLSRLGSDDTAVYYCARGGYSGYALSSHYGMDVWGQGTMVTVSS VL: EIVLTQSPGTLSLSPGERATLSCRASQSVSSSYLAWYQQKPGQAPRLLIYDASSRATGIPDRFSGSGSGTDFTLIISRLEPEDFAVYYCQQYDSSPLTFGGGTKVEIK",,
~1 nM,0.129 nM,,"NPP3B98 (antibody, V domains shown, mAb from Ablexis Kappa mice) VH: QVQLQESGPGLVKPSETLSLTCTVSGGSISNYYWSWIRQPAGKGLEWIGRIYASGSTNYNPSLKSRVTMSVDTSKNQFSLRLRSVTATDTAVYYCAREGYSSTLYDNAFDFWGQGTMVTVSS VL: DIQMTQSPSSVSASVGGRVTITCRASQGISTWLAWYQQKPGKAPKLLIYAASSLQSGVPSRFSGSGSGTDFTLTISSLQPEDFATYYCQQANSFPLTFGGGTKVEIK",,
